Laboratory results as given in the Immune Epitope Database (IEDB).

target: HLA-A*02:06; test: IEDB peptide-MHC binding, purified MHC/competitive/radioactivity; filed as Kd, often an IC50 or EC50 that approximates it; ≥ and ≤ were set here for values at or beyond the usual limits of such assays; conditions: source organism: Vaccinia virus WR

Going from DAMIHKTYI to DAKRNSKSL, the Kd rises from 9570 nM to at least 77100 nM. The first binds more tightly here.

Compared with LQWDDNIPEL, TLLGLILFVL is 20-fold higher in Kd: 34.4 nM for the first, 672 nM for the second. The first binds more tightly here.

Compared with GLILFVLAL, AAITLVVISV is 290-fold lower in Kd: 7800 nM for the first, 26.8 nM for the second.

Compared with DTIAHINTL, ALAEHISDSI is 69-fold lower in Kd: 11200 nM for the first, 163 nM for the second.

Going from MAAAKTPVI to IAMLKSKNI, the Kd rises from 672 nM to 10600 nM (16-fold).

target: HLA-A*03:01; test: as above; conditions: source organism: Lymphocytic choriomeningitis virus (strain Armstrong)

VTMFEALPH gave a Kd of 467 nM.

same assay, conditions: source organism: Mammarenavirus juninense

For NYTKFWYVNH, the Kd was at least 70000 nM.

same assay, conditions: source organism: Mammarenavirus machupoense

SSFDYCGTDH gave a Kd of at least 70000 nM.

same assay, conditions: source organism: SARS coronavirus Tor2

Going from TAFQHQNSKK to NQLESKVSGK, the Kd rises from 332 nM to 9480 nM (29-fold). The first binds more tightly here.

Compared with NAFNCTFEY, FLYLYALIY is 1.7-fold higher in Kd: 3970 nM for the first, 6630 nM for the second. The first binds more tightly here.

With SQASSRSSSR the Kd was 7970 nM.

same assay, conditions: source organism: Vaccinia virus WR

Going from FSNTILLSDK to SIFPANINDK, the Kd rises from 25.5 nM to 1220 nM (48-fold). The first binds more tightly here.

First: NVISSKISY
Second: SSRVDRYSKK
The Kd of the first is 2.3-fold higher: 651 nM for the first, 285 nM for the second. The second binds more tightly here.

First: HLKVALYRR
Second: NSYISNIIY
The Kd of the first is 6.3-fold lower: 1190 nM for the first, 7480 nM for the second. The first binds more tightly here.

Compared with AVVADLSAR, IICEDAMYY is 17-fold higher in Kd: 141 nM for the first, 2360 nM for the second.

First: YLTMKAIEK
Second: PSTVKTNLY
The Kd of the first is lower: 384 nM for the first, at least 40300 nM for the second.

Going from VSIILANER to VTFRERYSYK, the Kd falls from at least 78000 nM to 0.457 nM.

LIKKSDAKR and YANLDDVYSY cannot be ordered by Kd: at least 78000 nM for the first, at least 25700 nM for the second.

Compared with TFIMLEGETK, QMLTSGEYK is 5.6-fold lower in Kd: 38.8 nM for the first, 6.95 nM for the second.

target: HLA-A*11:01; test: as above; conditions: source organism: Lymphocytic choriomeningitis virus (strain Armstrong)

VTMFEALPH showed a Kd of 15.6 nM.

same assay, conditions: source organism: Mammarenavirus juninense

NYTKFWYVNH showed a Kd of at least 56900 nM.

same assay, conditions: source organism: Mammarenavirus machupoense

SSFDYCGTDH gave a Kd of at least 69700 nM.

same assay, conditions: source organism: SARS coronavirus Tor2

Going from TAFQHQNSKK to NQLESKVSGK, the Kd rises from 139 nM to 14700 nM (110-fold).

First: NAFNCTFEY
Second: FLYLYALIY
The Kd of the first is 820-fold lower: 19.9 nM for the first, 16300 nM for the second. The first binds more tightly here.

SQASSRSSSR gave a Kd of 1530 nM.

same assay, conditions: source organism: Vaccinia virus WR

Going from FSNTILLSDK to SIFPANINDK, the Kd rises from 1.96 nM to 7.48 nM (3.8-fold).

NVISSKISY and SSRVDRYSKK are within 1.5-fold of each other in Kd: 482 nM for the first, 332 nM for the second.

First: HLKVALYRR
Second: NSYISNIIY
The Kd of the first is 3.9-fold higher: 9610 nM for the first, 2490 nM for the second.

Going from AVVADLSAR to IICEDAMYY, the Kd rises from 51.8 nM to 196 nM (3.8-fold). The first binds more tightly here.

Going from YLTMKAIEK to PSTVKTNLY, the Kd rises from 867 nM to 6770 nM (7.8-fold). The first binds more tightly here.

Going from VSIILANER to VTFRERYSYK, the Kd falls from 47.2 nM to 3.19 nM (15-fold). The second binds more tightly here.

Compared with LIKKSDAKR, YANLDDVYSY is 6.2-fold lower in Kd: 236 nM for the first, 38.2 nM for the second.

Going from TFIMLEGETK to QMLTSGEYK, the Kd falls from 11.8 nM to 3.67 nM (3.2-fold). The second binds more tightly here.

target: HLA-A*31:01; test: as above; conditions: source organism: Lymphocytic choriomeningitis virus (strain Armstrong)

In the case of VTMFEALPH, the Kd is reported as at least 77900 nM.

same assay, conditions: source organism: Mammarenavirus juninense

With NYTKFWYVNH the Kd was 1000 nM.

same assay, conditions: source organism: Mammarenavirus machupoense

With SSFDYCGTDH the Kd was at least 31800 nM.

same assay, conditions: source organism: SARS coronavirus Tor2

TAFQHQNSKK and NQLESKVSGK cannot be ordered by Kd: at least 54300 nM for the first, at least 42500 nM for the second.

NAFNCTFEY and FLYLYALIY are within 1.5-fold of each other in Kd: 11500 nM for the first, 16900 nM for the second.
